This experiment addresses T1, ABH1 polypeptide (Arabidopsis thaliana, UniProt Q9SIU2 1-848).
T1 construct: Tested in a yeast two-hybrid experiment and expressed in yeast cells; also called Arabidopsis CBP80 homolog
T1 sequence: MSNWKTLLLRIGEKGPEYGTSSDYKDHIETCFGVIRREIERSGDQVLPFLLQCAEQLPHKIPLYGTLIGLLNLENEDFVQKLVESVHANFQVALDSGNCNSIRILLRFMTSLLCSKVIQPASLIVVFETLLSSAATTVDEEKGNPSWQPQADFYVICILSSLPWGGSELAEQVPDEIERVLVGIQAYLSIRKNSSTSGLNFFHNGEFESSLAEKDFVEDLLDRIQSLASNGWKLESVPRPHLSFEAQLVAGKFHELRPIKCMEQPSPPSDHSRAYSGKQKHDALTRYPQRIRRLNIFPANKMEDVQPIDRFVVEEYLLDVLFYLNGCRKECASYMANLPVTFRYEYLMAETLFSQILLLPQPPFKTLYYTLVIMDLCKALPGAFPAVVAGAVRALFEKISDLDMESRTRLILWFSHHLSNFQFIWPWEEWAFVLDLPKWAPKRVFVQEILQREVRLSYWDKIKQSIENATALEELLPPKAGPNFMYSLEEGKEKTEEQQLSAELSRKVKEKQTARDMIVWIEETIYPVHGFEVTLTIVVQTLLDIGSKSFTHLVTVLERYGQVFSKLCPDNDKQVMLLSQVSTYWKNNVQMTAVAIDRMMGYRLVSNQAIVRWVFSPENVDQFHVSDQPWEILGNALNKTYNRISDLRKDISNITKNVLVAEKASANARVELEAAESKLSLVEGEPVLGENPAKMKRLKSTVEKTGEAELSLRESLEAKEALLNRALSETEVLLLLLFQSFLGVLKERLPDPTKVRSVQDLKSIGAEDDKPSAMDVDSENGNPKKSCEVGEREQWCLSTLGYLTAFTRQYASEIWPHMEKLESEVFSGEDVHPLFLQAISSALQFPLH
Kind of experiment: yeast two-hybrid.

Experimental findings from patent US20020199219A1 (UNIVERSITY OF CALIFORNIA SAN DIEGO, published 2002) are described below.

B1: Arabidopsis CBP20 homolog (AtCBP20) (other, UniProt Q9XFD1 1-257, looked up)
chain: MASLFKEQAKLSAYRDRRFSGTQEEFDEALRASTTVYIGNVSFYTTEEQLYELFSRAGEIKKIIMGLDKNTKTPCGFCFVLFYSREDTEDAVKYISGTILDDRPIRVDFDWGFQEGRQWGRGRSGGQVRDEYRTDYDPARGGYGKLVQKELEAQRQLVDYGTGSLGAYPQAAPTNYGNGRRGGGNYGQGGQNRHGRGDYHRKRQRDDDRYGRDNSRRNTDHESRRDTDSDMRPEKNPRFRESGDSDDDGEDDRKRRS
notes: The limits of the construct and the two-hybrid fusion domains are not described
In the case of B1, the binding result is on record as “binds”.
